{
  "source": "a protein production outcome set (Wang et al. 2014)",
  "assay": "label from the status in PepcDB records",
  "data": [
    {"sequence": "MAVPTELDGGSVKETAAEEESRVLAPGAAPFGNFPHYSRFHPPEQRLRLLPPELLRQLFPESPENGPILGLDVGCNSGDLSVALYKHFLSLPDGETCSDASREFRLLCCDIDPVLVKRAEKECPFPDALTFITLDFMNQRTRKVLLSSFLSQFGRSVFDIGFCMSITMWIHLNHGDHGLWEFLAHLSSLCHYLLVEPQPWKCYRAAARRLRKLGLHDFDHFHSLAIRGDMPNQIVQILTQDHGMELICCFGNTSWDRSLLLFRAKQTIETHPIPESLIEKGKEKNRLSFQKQ", "values": [
      {"measurement": "protein production", "result": "failed"}
    ]},
    {"sequence": "MPTERPTTTAPVSLRERRRTAAAREILDAAEQHIGEHGPAALSLRAVARGLGMTVQALYHYFPNRDALVTALITKAYGELSDVLQAAADSVRADPATPRPVAVAEAYRGWGVARPEHFQLLYGTPLRYYAAPAEGPTTQAVRRMGAIFQRELFAGFTPAQLAAAEVPALSPSYREHLEQLPMHAQGDLPPAAASLFLSAWGHVHGLVVLEVFGHTAFLGDHQAEVFRTSVRMMLEDIHRRIPAA", "values": [
      {"measurement": "protein production", "result": "not failed"}
    ]},
    {"sequence": "LFQRVLYATDFSENATRAFDAFQYLRHATQEATLVHVESPKDATSEADPAEQLASLADTLSQWDIETNVEVRRGDPAEEILDVEAAVTPTTTLVGSRGQSRMRRLLLGSVSEDIIAQATGNVYLVPPP", "values": [
      {"measurement": "protein production", "result": "failed"}
    ]},
    {"sequence": "PVAGPYITFTDAVNETTIMLKWMYIPASNNNTPIHGFYIYYRPTDSDNDSDYKKDMVEGDRYWHSISHLQPETSYDIKMQCFNEGGESEFSNVMICETKAR", "values": [
      {"measurement": "protein production", "result": "not failed"}
    ]},
    {"sequence": "MTKHRWSPVSSPPSRKPENVQVINLLPVAAGIIAILLALSFFGQVGAALLAITLALILATALNPVARWLERWMPRPAAGALTVLLVVLALVLLGLVAVPPLVSQGSKLTSSLPTSIPELEAQINALIDRYPAINSVLTEASVHRLIQQAGSFAANAAKGLPNIVSTFVGGVFMGLVMLVMVVFVLSNPVPLVNGVLGAVPPRHRLPAARALAQILKQLGGWGRATVLVMLVTGSCTALGLMLLKVDNWLIFGILAALGELVPNIGPIVATIPSVLFAAADDPQKGLYVALFVLVFQQVSGFVLGPFLLGGAGKLHPLSVTVGVLLFGSVFGIVGAFLTVPFLIIIKAIYQEFYLQDAPDIPDAVAMALISGKVEEQLDREEEQREAIDGQLQAARDEELQRQLEEGDLDLAAVLEHPESEPGNETTVEHSQTVISPTAQNPEQK", "values": [
      {"measurement": "protein production", "result": "failed"}
    ]},
    {"sequence": "MTQTVKLDILSDPICPWCYIGKTQLDKALAAIPDHPFVIEWHPFQLNPDMAPEGMDRREYLERKFGGKEGAVRAYAPVVEHAEKAGLAIDFEAMQRTPNTLDAHRLIHWAGVEGKQTEAVDALFAAYFTEGRDIGDAEVLADIADSIGMDAAVVLKLLKSDADRDDIAKRDSHSREMGVSSVPTFIVANQHAVPGAQPPELWEQVIREIMSQIETTSA", "values": [
      {"measurement": "protein production", "result": "not failed"}
    ]},
    {"sequence": "DSFKTKSGKELTITFIKHGSLMLTYDNHSIQVDPVSEYADYTTFPKADIILITHEHGDHLDPKAIQAVEKSDTEIIANENSQKKLGKGKVLKNGDTDTSISYMKIEAVPAYNTTPGRDKYHPRHRDNGYILTFDGLRVYIAGDTEDIPEMKDLKDIDIAFLPVNQPYTMTVSQAAKAARMFSPKILYPYHYGDTKIGELKDALKDSGIDVRIRELQ", "values": [
      {"measurement": "protein production", "result": "not failed"}
    ]},
    {"sequence": "MSSNVPADMINLRLILVSGKTKEFLFSPNDSASDIAKHVYDNWPMDWEEEQVSSPNILRLIYQGRFLHGNVTLGALKLPFGKTTVMHLVARETLPEPNSQGQRNR", "values": [
      {"measurement": "protein production", "result": "failed"}
    ]},
    {"sequence": "MPQIYFSAAERRPKFVMKTGLSATEKNEVIKAAYRQIFERDITRAYSLSISDLESKVKNGDISMKEFVRRLAKSPLYQKQFYQPFINSRVIELAFRHILGRGPSSREEVQKYFSIISNGGLPALVDALVDSAEYSDYFGEETVPYLRGLEHHHHHH", "values": [
      {"measurement": "protein production", "result": "failed"}
    ]},
    {"sequence": "MRLVQLSRHSIAFPSPEGALREPNGLLALGGDLSPARLLMAYQRGIFPWFSPGDPILWWSPDPRAVLWPESLHISRSMKRFHKRSPYRVTMNYAFGQVIEGCASDREEGTWITRGVVEAYHRLHELGHAHSIEVWREBELVGGMYGVAQGTLFCGESMFSRMENASKTALLVFCEEFIGHGGKLIDCQVLNDHTASLGACEIPRRNYLNYLNQMRLGRLPNNFWVPRCLFSPQE", "values": [
      {"measurement": "protein production", "result": "not failed"}
    ]},
    {"sequence": "MKKIIGLLFIVSCCILLSPTIKVQADTVPLPAPIIEAFPVEAIAEAIAEELDKDSVNDIITQEDLDTITILPFPGLNLTGEDLNVLNNEVFTNATELAIWSNNIGEMPDLSESLPALETIKASDANITQFPNANYPNLTTVDFSKNNFGINIPEFIGMEKLVSINMEQAELSGYIAKDIWMNMPNLETLLLRDNHLISIPEDIFLTGQIRNRSFDGQTATYPPRTIKQGENLDVFVPFIYQALDFIAPAPGNEMIINDNGEFLYKPVYPSYTGSYMYTIETAGLEPGEHLLEISLNYNGSEYLGWYDFPVTITE", "values": [
      {"measurement": "protein production", "result": "failed"}
    ]},
    {"sequence": "MSFLCVRTVSRFRSLSRALAPGFLLLHGNAVPKTAVFFRQQSSNTRLFSSYTAPSGVEENNSKSALKNKLPPGKEVSSKDAKEKITTSAIDLALNSVVKVFTVSSKPRLFQPWQITMQSESTGSGFVISGKKILTNAHVVANQTSVKVRKHGSTTKYKAKVQAVGHECDLAILEIDNDKFWEGMNPLELGDIPSMQDTVYVVGYPKGGDTISVSKGVVSRVGPIKYSHSGTELLAIQIDAAINNGNSGGPVIMGNKVAGVAFESLCYSDSIGYIIPTPVIRHFLNAIEESGEDVSFGSINLTYQKMDNDQLRKDFKMSDKMTGILINKINPLSDVHKVLKKDDIILAIDGVPIGNDSSVHFRKKERITFKHLVSMKKPCETALLKVLREGKEYEFNSSLKSVPPLVPKRQYDKSASYYIFGGLVFLPLTKPYIDSSCVSESALGKMPKKAGEQVVIISQILEDDINTGYSIFEDFQVKKVNGVQVHNLKHLYKLVEECCTETVRMDLEKDKVITLDYKSAKKVTSKILKSLKIPSAVSEDLQPKQQNKRSKVPPKSKEH", "values": [
      {"measurement": "protein production", "result": "failed"}
    ]},
    {"sequence": "GSDSSLFETYNVELVRKDGQSLGIRIVGYVGTSHTGEASGIYVKSVIPGSAAYHNGHIQVNDKIVAVDGVNIQGFANHDVVEVLRNAGQVVHLTLVRRKTSSSTSPLEPPSDRGTV", "values": [
      {"measurement": "protein production", "result": "not failed"}
    ]},
    {"sequence": "MSLPSSRTRGRPARLDRARTVQTALDLLNESGLDTLTMRRLAQAMDVQAGALYRYFAAKQDLLTAMAEHMVDGVADAAGATGDGDWSERTARLARALRAALLAHRDGARVFAGTHATGPNTLRFADGLVGVLREAGFGDGDAARALYSVANFTVGHTLEEQAALTPGGGGPLDEATLREAVAAGTYPHLAATLPVLTSTDFTAHFEFGLRLLLDGLRAVRQ", "values": [
      {"measurement": "protein production", "result": "not failed"}
    ]},
    {"sequence": "MKKWWMLTICIVFIVAAVVPVRAAAASHPLFANVIVVFQQQVDEQAVKTLHGNVTKRFEVIPAVAATLPVTAVELLRRWPGVDYVQQDTTVAIDGQITDWGVEKVKAPVMHTHGVTGKGVKIAILDTGVDLKHPDLRVVGGACVLSYCPNSYQDDNGHGTHVAGIIAAKDNDIGTVGVAPNASIYAVKVLDRYGEGNVSDILSGIEWAMKHRVDIINLSLAAPEDAPALKAAIRKAYESGILVVAAAGNNGYANGTGDTVEYPAKYDSAIAVSAVNKENVRLPYSATGPAIEVAAPGEGVYSTVPVALDGDGRRDGYTHMSGTSMAAPFVTGVLALYKQQYPERTNIELRQMLRDRALDLGTPGRDPWYGYGLVRAVSNQPPELKVKLLSVKKGEVAFSVTLSGSAVKGYRVYRNGKQIETLQTAGTYTDYVVKGTYQYEFASIRNDGAESALTAPITVNVPDPYYKDVSASAWYMPEIAYLSSRGIVSGYNNGTIQPYNTITRAEVAVMLGRALHLDATKRATVFRDVASSDFASGYIQSAYERGLINGYPDGTFRPQQPITRAETAIILSRAYPLPGGSSMMFKDVTARVTGHEAIAKLAAARIAEGYPDGTFRPYQFVKRLEFFVFTARADNERFR", "values": [
      {"measurement": "protein production", "result": "failed"}
    ]},
    {"sequence": "KGTLRRITEIAEVSGIEGESIQLNFLYKYDPAKDELIRTEVPSRFIQTLSYHTGLSIEELKWEIEKRRLILDWMIEKGIRRIDEVGYYIKEFYIDEEELLKKIE", "values": [
      {"measurement": "protein production", "result": "failed"}
    ]},
    {"sequence": "MTETDKKQEQENHAECEDKPKPCCVCKPEKEERDTCILFNGQDSEKCKEFIEKYKECMKGYGFEVPSAN", "values": [
      {"measurement": "protein production", "result": "not failed"}
    ]},
    {"sequence": "MAEGKDRNFVTALARGLDVLRSFRPGEVLLTNTDLSERTGLPKPTVSRLTYTLCQLGYLVQDRQSGAYRLGVGVLQLGMGVLAGLDICDRAAEVLRGLRTGANPYITAALGEVHRAEVIYVAVSRSRENVSLSMHVGSRLPLFRSAIGRAILVGMEAEEREAAIAAGMRDLGVPEAELRSQIARAVEEYAVRGYCTGYGDWRADVNGIAVPVLSLGGARLHGLNLGGPSFHVTQEELERVFAPLLIEAGRSLGMVP", "values": [
      {"measurement": "protein production", "result": "failed"}
    ]},
    {"sequence": "MGTRGNEEEEDWFSDAREEVSSVSDCNSEVADDFVQATGDLDLWTMNPESVTNRRQKFFQSMGFSFKKRDFDLDLDLLGDSSSDHIPVSKQLTSVSETDHEEEEKEEKLLRNESTSSGSSVSSFSTASLAEAFSFRGSFQNRAKNIDDQILLTRDYSSNSSSIAEGLSESDSSRFDSYGDLPNSPMSRYEESPKKGAKGWLKKLGVLTHVLDKTEECTDGESTRSSIRRQLTRVQSFKKQFKELSSLCVGQEFSAHDGSIVVMKFSHDGKYLASAGEDCVVRVWNIIEDERRDNEFEVAESDSSCVYFGMNDKSQIEPLKTENEKIEKSRGLLRKKSESTCAVLPSKVFSISETPQHEFRGHTGEILDLSWSEKGFLLSSSVDETVRLWRVGSSDECIRVFSHKSFVTCVAFNPVDDNYFISGSIDGKVRIWDVSQFRVVDYTDIRQIVTALCYRPDGKGAVVGSMTGECRFYHTTDNQLQLDRDISLHGKKKVPNKRITGFQFFPGDSDKVMVTSADSQIRIICGVDTICKLKKASSLRTTLMSPTFASFTSDGKHIVSTIEESGIHVWDFSQPNKKASSQKPKTIRSYEGFLSRNVSVAIPWLGQGKEDSIIADLEKSFAHFPVPLDYFSPMKGATTWPEEKLGVVAGTAAAAVSATVSSRSKLRLLKSVCQNVHGSTPHLWGLVIVTATWDGSIRVFHNYGLPIRV", "values": [
      {"measurement": "protein production", "result": "failed"}
    ]},
    {"sequence": "MMLRRLALSAATGLMLALPALAETVSDFRLPNGLEVVVIEDHRAPVVTHMVWYRVGAADEPPGHSGIAHFLEHLMFKGTDEMSAGEFSATVEAQGGDDNAFTSWDYTAYFQRVAADRLDLMMKMEADRMRDLQMTEEDVRTERQVVLEERSQRTDSDPGAVFSEQSRAAAYLNHPYGIPIIGWRHEIEQLGREDAFSFYRTYYAPNNAILVVAGDVDPAEVRRMAEEHYGALEPTPNLPERLRPQEPPQLAERRLTFSDPRVAQPYVSRSYLAATRETGAQEKAAALTILAELLGGSPTTSLLSRELQFGPEPKAVWAQAYYDGGGLDSGTFGLAVVPAAGVSLQEAEDAMDAVVARFLKEGPDAEDFERIKTQLGAQDIYSRDNVDGLARRYGAALTTGLTVADVQAWPEVLQAVTPDEVMAAAREVFDRRRAVTGWLMQEDEEKSQ", "values": [
      {"measurement": "protein production", "result": "failed"}
    ]},
    {"sequence": "MQTLNDIYLAYLDSLNHQAFDELGTFVDDNVEHNGRPFGLSGYRDMLVKDFADIPDLRFEAEILVSDATRLAARLFFDCTPKSIFMDLPVNGRRVQFCEHVFYDFEQAKIRRVWSVLDKVAIERQLG", "values": [
      {"measurement": "protein production", "result": "not failed"}
    ]},
    {"sequence": "MVEPGVAKLTTYASKQATDMGAIYVNSKGDRIVNESNVYTTFRNAILKQADKVAYLVMDERTWKKVYDLLILHDFTPEEIKSFFENKGKRPVFVKGSLESAAEQAGIVVDELVQTVKNYQGYVQDGHDHDFGRDPKYLHQFEGETFYIIEQRLEHHHHHH", "values": [
      {"measurement": "protein production", "result": "failed"}
    ]},
    {"sequence": "MSEPLHALARQLEQAIRASEPFQQLKRAYEDVRRDETAYRMFANVRDIQLRLHEKQMRGAAILPDEIEQAQKAMALAQQNEKLARLMALEQQMSITIAEVQQIAMKPLEELHRSFMEGR", "values": [
      {"measurement": "protein production", "result": "not failed"}
    ]}
  ]
}
